Assay results from the supplement of paper PMC9170038.

Test system: MS2 coat protein
Test: apparent KD of MS2 coat protein; designed switch direction (-1 OFF switch, 1 ON switch): -1; higher = weaker reporter binding
In short: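 Designed RNA switches with common flanks were transcribed on Illumina chips by stalled E. coli RNA polymerase and titrated with SNAP-549-labelled MS2 coat protein, from 0.7 or 1.5 nM doubling to 3 µM, in Tris-HCl pH 7.5 buffer with KCl, MgCl2, BSA, DTT, tRNA and Tween-20. Steps lasted 0.8–1.5 h (lowest) to 10–20 min (highest). Titrations ran without input, with 200 uM small-molecule ligand, or with an oligonucleotide input. Normalised cluster fluorescence was curve-fitted, and apparent KD is the per-design median over clusters.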

[1] = input ligand: microRNA oligo, concentration not stated
[2] = Eterna round: R95, input ligand: FMN 200 uM
[3] = Eterna round: R95, input ligand: microRNA oligo, concentration not stated
[4] = Eterna round: R95, input ligand: none

Sequence | apparent KD of MS2 coat protein (input ligand: FMN 200 uM) [nM] | apparent KD of MS2 coat protein [1] [nM] | apparent KD of MS2 coat protein (input ligand: none) [nM] | apparent KD of MS2 coat protein [2] [nM] | apparent KD of MS2 coat protein [3] [nM] | apparent KD of MS2 coat protein [4] [nM]
GGGUAACAUGAGGAUCACCCAUGUGAGGAUAUUCUAGGGAUGGAAGCUCGGCCGGCCAGGAGAAGGUACUAAAG [Janelle Amethyst 18 Mod 20 - Jieux - Exclusion 1] (Eterna round: R96, puzzle: Exclusion 1) | 62 | 29.6 | 48.2 | – | – | –
GCAGCAUAGUCCAAAUAGGACAUACAUGAGGAUCACCCAUGUCAGGAUAUGGUCUGGAUUACAGGCCAGAAGGGACGAAGCUGC [Eli exng3 - 005] (Eterna round: R96, puzzle: Exclusion NG 3) | 18 | 16.4 | 22.6 | – | – | –
UCGCUCCGUGUAGGAUAUCGCCGUACUAUACGGCGAGAAGGACAUGAGGAUCACCCAUGUAUGUUAUUAUCACGCGUGGCGCAA [Design 60] (Eterna round: R96, puzzle: Exclusion NG 1) | 21 | 11.5 | 22.2 | – | – | –
UGCGGAAGAGGAUAUACAUUGAAUUUGAUUCAUGUAAAACUACAUGAGGAUCACCCAUGUAGAAGGCUUUCGCU [Mat - Exclusion 2 - JL Mod - D66] (Eterna round: R97, puzzle: Exclusion 2) | 33.7 | – | 17.7 | – | – | –
UAUUCGAUAGGAUAUGCACAUCAUUUGGGAGGUAACAGUGCACAUGAGGAUCACCCAUGUAGAAGGAUCUGGAU [Eternabot (L2) Solution 46] (Eterna round: R97, puzzle: Exclusion 2) | 102 | – | 118 | – | – | –
AGAAAUGCCCAUGACCGCAAGCUUUUUGCUUGUCUUACCACAUGAGGAUCACCCAUGUGACAUGGGCUCCUGAUAAU [Onlaleti] (puzzle: Sensor v3, turn-off variant 2) | – | – | – | 14.7 | 11.4 | 12.3
ACUUACUGAGGAUAUACAUAGAUUUACAUGAGGAUCACCCAUGUUCCUCUAUGUAUAUAUGUAGAAGGCAGAAGAU [Mat - Exclusion 5 - JL Mod - D34] (Eterna round: R97, puzzle: Exclusion 5) | 56.9 | – | 18.9 | – | – | –
CAGUACUGAGGAUAUACAUGAGGAUCACCCAUGUGUUCCAGCUAGGAAACUAGCAGAAGUAGAAGGCAGUACUG [salish99_ex3_r3_067] (puzzle: Exclusion 3) | – | – | – | 425 | 25.5 | 23.9
CCCUCACAUGAGGAUCACCCAUGUCAGGAUAUAGUGCGAUUGUCGAUAUGAAAUUGCAUUAGAAGGGAUUAGGC [Eternabot (L1) Solution 67] (Eterna round: R97, puzzle: Exclusion 1) | 24.8 | – | 17.5 | – | – | –
GCAGUAUGAGUUAGGAUAUGAUGAUUUUUUUUAUUUCAGAAGGAACUUGAGGAUCACCCAAGUUAAGAUUUGGU [JR_BMEx4_Sub068] (Eterna round: R97, puzzle: Brourd's mod of Exclusion 4) | 45.6 | – | 24.6 | – | – | –
UGAGCAAGAGGAUAUACAUGACGUGCCGUAGCACGAGGUCUACAUGAGGAUCACCCAUGUAGAAGGCUUGUUCU [Mat - Exclusion 2 - JL Mod - D5] (Eterna round: R97, puzzle: Exclusion 2) | 170 | – | 34.2 | – | – | –
GUGAGCAGACGGAGAUCCAACAUGAGGAUCACCCAUGUCUCACAAGCUUUUUGCUCGUCUUAUCCUCCUCUGUUCAC [Elimod 22 - Jieux - Sensor, turn-off variant 1] (Eterna round: R97, puzzle: Sensor, turn-off variant 1) | 15.8 | – | 14.6 | – | – | –
CAGUACAGAGGAUAUACAUGAGGAUCACCCAUGUGUUCCAGCUAGGAAACUAGCGAAUGUAGAAGGCUGUACUG [jl-ex3-4.23 salish99 mod] (Eterna round: R97, puzzle: Exclusion 3) | 166 | – | 273 | – | – | –
AAUCUGCCGUAGGAUAUCUGAAGUUUAUAUAUAAGAGAAGGACGGACAUGAGGAUCACCCAUGUACGAUCCUGC [EX6 B.24] (Eterna round: R97, puzzle: Exclusion 6) | 19.9 | – | 11.5 | – | – | –
GGUUGGCGAGGAUAUACAUGAGGAUCACCCAUGUGAGAAAUAAAAGUGAGGAAGAAAAGUAGAAGGCGCUGACG [Mat - Exclusion 3 - Mod of Salish D3] (puzzle: Exclusion 3) | – | – | – | 188 | 50.4 | 83.9
UUUUUCGGACAAGCUACGUACAUGAGGAUCACCCAUGUCGGUAGAUUUGAGUAGGUUUGGAUGGAAGCUCGUCUUAU [JR_SV3TOV1_Sub084] (puzzle: Sensor v3, turn-off variant 1) | – | – | – | 40.9 | 53.5 | 53.2
AUUUUGUCAGGAUAUUGUUAGUUUAGUUGUUUGUAUUAGUUCGAGAAGGGACAUGAGGAUCACCCAUGUGAUUU [Ex4 #74] (Eterna round: R97, puzzle: Exclusion 4) | 135 | – | 114 | – | – | –

Sequence | apparent KD of MS2 coat protein (input ligand: FMN 200 uM) [nM] | apparent KD of MS2 coat protein [1] [nM] | apparent KD of MS2 coat protein (input ligand: none) [nM] | apparent KD of MS2 coat protein [2] [nM] | apparent KD of MS2 coat protein [3] [nM] | apparent KD of MS2 coat protein [4] [nM]
CCAGCGAGUGUGAGGAUAUGCUGGUCCUUGGAUCAGCAGAAGGCACAUGAGGAUCACCCAUGUGAGGACGUUGG [JL bmx4 3.31] (Eterna round: R96, puzzle: Brourd's mod of Exclusion 4) | 294 | 27.9 | 31.9 | – | – | –
GGCUGCAAUGUAGGAUAUCUGCACGAUUAGUGCAGAGAAGGACAUGAGGAUCACCCAUGUAUAGUAGCUUCGGCUACAGCAGCC [ENG1-D1] (Eterna round: R96, puzzle: Exclusion NG 1) | 17.1 | 14.2 | 15.6 | – | – | –
AAACCUGCCCAUGACCGCAAGCUUUUCGCUUGUCUUACCACAUGAGGAUCACCCAUGUGACAUGGGCUCCUUAUAAA [Usorle] (puzzle: Sensor v3, turn-off variant 2) | – | – | – | 14 | 11.8 | 11.4
GCAGUGCGAGGAUAUACAUGAGGAUCACCCAUGUGAGAAUAAUAAGUGAGGAAGAAAAGUAGAAGGCGCGUUGG [Mat - Exclusion 3 - Mod of Salish D67] (puzzle: Exclusion 3) | – | – | – | 103 | 41.1 | 46.8
CCGGAUAUGCAGGAUAUCGUAUCGGAUACGAUACGAGAAGGGUAUACAUGAGGAUCACCCAUGUGCCUUACCGG [Mat - Exclusion 6 - Eli Mod - D83] (puzzle: Exclusion 6) | – | – | – | – | 18 | –
GUAAAUCAUGUAGGAUAUGCGUGGCGAAGCUAUGCAGAAGGACAUGAGGAUCACCCAUGUGCUUGCGUCCGCGUACGGAUGCAA [Mat - Exclusion NG 1 - Mod of JL - D70] (Eterna round: R96, puzzle: Exclusion NG 1) | 292 | 124 | 237 | – | – | –
CUCUGACAUGAGGAUCACCCAUGUGAGGAUAUGAUGCAGCAGUGGUCUACGCUGUGCAUCAGAAGGCACAUGUG (puzzle: Exclusion 1) | – | – | – | – | 124 | –
AUUGUUUAUGUAGGAUAUGCCUGGCGUGCCUUCGCAGAAGGACAUGAGGAUCACCCAUGUAUUGCGGUCUGCGUUCAGAUCGCA [salish99_ExNG1_r4_024] (Eterna round: R96, puzzle: Exclusion NG 1) | – | 45.2 | – | – | – | –
AAUCCUCUGCAGGAUAUCACUGGAUGAACCAGCUGAGAAGGGCGCACAUGAGGAUCACCCAUGUUGUAAGUAGC [Eternabot (L1) Solution 80] (Eterna round: R97, puzzle: Exclusion 6) | 132 | – | 51.7 | – | – | –
UGUUGUCGCGCAGGAUAUGAGGAUCACCCAUAUAAAGGAUAUGAAAAGAAGGUUCUGAGGAUUACCCAGAAGGGCGGGACAACU [pwkr exNG2 2xF5 2xFMN.16] (Eterna round: R96, puzzle: Exclusion NG 2) | 250 | 40.3 | 52.3 | – | – | –
UUAAUAUAUCAGGAUAUGAUUAUAUGUGUUAAAUCAGAAGGGAUAACAUGAGGAUCACCCAUGUUGUGGAGUGA [JR_Ex6_Sub033] (Eterna round: R97, puzzle: Exclusion 6) | 303 | – | 92.8 | – | – | –
AUGCGUGGCUAGGAUAUUGAGGAAUUUAGUCAGCGAGAAGGAGCCACAUGAGGAUCACCCAUGUGGUGAAGCUC [jl-ex6-4.59 ViennaUCT mod] (Eterna round: R97, puzzle: Exclusion 6) | 70.5 | – | 19.1 | – | – | –
UUCCGACAUGAGGAUCACCCAUGUAAGGAUAUGCACUAGAGGGCAAACCCUCUUAACGGCAGAAGGUGCAGGGA [Qudile] (Eterna round: R97, puzzle: Exclusion 1) | 115 | – | 15 | – | – | –
GCUAGAGCAGGAUAUCUAGAUCCACACAUGAGGAUCACCCAUGUAGUCGAAAGACUAAGAAGAGAAGGGCUCUAGC [Omei Ex5 E16] (Eterna round: R97, puzzle: Exclusion 5) | 322 | – | 324 | – | – | –
GAUUAUGCGAGCUUUAGGGACAUGAGGAUCACCCAUGUUCGUCUUAUUGGUCUAGGUACGCUAACAUACCUAAAUCU [JMF 4] (puzzle: Sensor v3, turn-off variant 1) | – | – | – | 22.6 | 37.4 | 23.4
AGUCGGCGAGGAUAUACAUGAGGAUCACCCAUGUGAUAUAGUGCACGCGUACGUGUACGUAGAAGGCGCUGACA [Mat - Exclusion 3 - Mod of JL D93] (puzzle: Exclusion 3) | – | – | – | – | 11.5 | –
